Data published in PMC12177037 (Communications Biology, 2025).

Biological target: T1, lysozyme (Gallus gallus (Chicken)., UniProt P00698)
T1 construct: lysozyme, ~15 kDa on SDS-PAGE
Assay: other fluorescence titration; 20 nM TAMRA-labelled quenchbody in PBS/0.05% Tween-20 with 1-8000 nM antigen, 1 h at room temperature (legend: 60 min, 25 °C), 384-well plate, excitation 535 ± 20 nm, emission 585 ± 30 nm; fit to single site-specific binding with Hill slope; EC50 as a proxy for KD
Details: both partners purified

T1 sequence (P00698 19-147): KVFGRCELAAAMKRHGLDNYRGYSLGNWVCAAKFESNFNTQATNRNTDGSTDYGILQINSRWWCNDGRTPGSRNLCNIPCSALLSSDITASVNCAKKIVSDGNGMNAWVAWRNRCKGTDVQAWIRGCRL

| EC50 | Binder |
| --- | --- |
| 7 nM | lysozyme-binding quenchbody (Qb-Lys), wild type (VHH, the labelled, eluted form stood in the fluorescence assays; also called lysozyme quenchbody; source: NEBExpress cell-free E. coli protein synthesis (IVTT); not shown: Cys-tag, N-terminal, kept) VHH: DVQLVESGGGSVQAGGSLRLSCAASGYIASINYLGWFRQAPGKEREGVAAVSPAGGTPYYADSVKGRFTVSLDNAENTVYLQMNSLKPEDTALYYCAAARQGWYIPLNSYGYNYWGQGTQVTVSS |

Biological target: T1, lysozyme
Assay: fluorescence intensity plate assay at one antigen concentration (fold-sense); 20 nM TAMRA-labelled quenchbody variants in PBS/0.05% Tween-20 with and without antigen (500 nM lysozyme or MBP in Fig. 3B and 3E; concentration not stated for Fig. 3C and 3F); fold-sense = fluorescence with antigen relative to 0 nM antigen
Details: both partners purified

| fold-sense (fluorescence with antigen relative to without) | Binder |
| --- | --- |
| 1.7 fold | lysozyme quenchbody (Qb-Lys) Y110W (VHH, as the VHH of m2 (nanobody chain of PDB 1ZVH in the cassette) with the stated change; source: NEBExpress cell-free E. coli protein synthesis (IVTT); not shown: Cys-tag, N-terminal, kept) VHH: DVQLVESGGGSVQAGGSLRLSCAASGYIASINYLGWFRQAPGKEREGVAAVSPAGGTPYYADSVKGRFTVSLDNAENTVYLQMNSLKPEDTALYYCAAARQGWYIPLNSWGYNYWGQGTQVTVSS |
| 1.3 fold | lysozyme-binding quenchbody (Qb-Lys), wild type (VHH, the labelled, eluted form stood in the fluorescence assays; also called lysozyme quenchbody; source: NEBExpress cell-free E. coli protein synthesis (IVTT); not shown: Cys-tag, N-terminal, kept) VHH: DVQLVESGGGSVQAGGSLRLSCAASGYIASINYLGWFRQAPGKEREGVAAVSPAGGTPYYADSVKGRFTVSLDNAENTVYLQMNSLKPEDTALYYCAAARQGWYIPLNSYGYNYWGQGTQVTVSS |

Biological target: T1, lysozyme
Assay: pull-down; FLAG-tagged quenchbody from the crude IVTT mixture bound to anti-FLAG magnetic agarose beads, combined with 100 uL of 1 uM MBP or 10 uM lysozyme, 30 min, room temperature, 1200 rpm; 6 washes with PBS; eluted with 3x FLAG peptide; reducing SDS-PAGE; semi-quantitative comparison with the wild type
Details: one partner purified

| binding result | Binder |
| --- | --- |
| binds | lysozyme quenchbody (Qb-Lys) Y27W/Y104W (VHH, as the VHH of m2 (nanobody chain of PDB 1ZVH in the cassette) with the stated changes; Member of the 'single, pairwise, and triple Y27W, Y104W and Y110W mutants'; the combination is counted out from that phrase; also called pairwise mutant Y27W, Y104W; source: NEBExpress cell-free E. coli protein synthesis (IVTT); captured on anti-FLAG magnetic beads from the crude IVTT mixture (pull-down)) VHH: DVQLVESGGGSVQAGGSLRLSCAASGWIASINYLGWFRQAPGKEREGVAAVSPAGGTPYYADSVKGRFTVSLDNAENTVYLQMNSLKPEDTALYYCAAARQGWWIPLNSYGYNYWGQGTQVTVSS |
| binds | lysozyme quenchbody (Qb-Lys) W103Y (VHH, as the VHH of m2 (nanobody chain of PDB 1ZVH in the cassette) with the stated change; source: NEBExpress cell-free E. coli protein synthesis (IVTT); not shown: Cys-tag, N-terminal, kept) VHH: DVQLVESGGGSVQAGGSLRLSCAASGYIASINYLGWFRQAPGKEREGVAAVSPAGGTPYYADSVKGRFTVSLDNAENTVYLQMNSLKPEDTALYYCAAARQGYYIPLNSYGYNYWGQGTQVTVSS |
| binds | lysozyme quenchbody (Qb-Lys) Y104W/Y110W (VHH, as the VHH of m2 (nanobody chain of PDB 1ZVH in the cassette) with the stated changes; Member of the 'single, pairwise, and triple Y27W, Y104W and Y110W mutants'; the combination is counted out from that phrase; also called pairwise mutant Y104W, Y110W; source: NEBExpress cell-free E. coli protein synthesis (IVTT); not shown: Cys-tag, N-terminal, kept) VHH: DVQLVESGGGSVQAGGSLRLSCAASGYIASINYLGWFRQAPGKEREGVAAVSPAGGTPYYADSVKGRFTVSLDNAENTVYLQMNSLKPEDTALYYCAAARQGWWIPLNSWGYNYWGQGTQVTVSS |

Further lines, the binder ahead of its results:

| Binder | binding result |
| --- | --- |
| lysozyme quenchbody (Qb-Lys) Y104W (VHH, as the VHH of m2 (nanobody chain of PDB 1ZVH in the cassette) with the stated change; source: NEBExpress cell-free E. coli protein synthesis (IVTT); not shown: Cys-tag, N-terminal, kept) VHH: DVQLVESGGGSVQAGGSLRLSCAASGYIASINYLGWFRQAPGKEREGVAAVSPAGGTPYYADSVKGRFTVSLDNAENTVYLQMNSLKPEDTALYYCAAARQGWWIPLNSYGYNYWGQGTQVTVSS | binds |
| lysozyme quenchbody (Qb-Lys) Y27W/Y104W/Y110W (VHH, as the VHH of m2 (nanobody chain of PDB 1ZVH in the cassette) with the stated changes; also called triple mutant Y27W, Y104W, Y110W; source: NEBExpress cell-free E. coli protein synthesis (IVTT); captured on anti-FLAG magnetic beads from the crude IVTT mixture (pull-down)) VHH: DVQLVESGGGSVQAGGSLRLSCAASGWIASINYLGWFRQAPGKEREGVAAVSPAGGTPYYADSVKGRFTVSLDNAENTVYLQMNSLKPEDTALYYCAAARQGWWIPLNSWGYNYWGQGTQVTVSS | binds |
| lysozyme quenchbody (Qb-Lys) Y27W (VHH, as the VHH of m2 (nanobody chain of PDB 1ZVH in the cassette) with the stated change; source: NEBExpress cell-free E. coli protein synthesis (IVTT); not shown: Cys-tag, N-terminal, kept) VHH: DVQLVESGGGSVQAGGSLRLSCAASGWIASINYLGWFRQAPGKEREGVAAVSPAGGTPYYADSVKGRFTVSLDNAENTVYLQMNSLKPEDTALYYCAAARQGWYIPLNSYGYNYWGQGTQVTVSS | binds |
| lysozyme quenchbody (Qb-Lys) Y27W/Y110W (VHH, as the VHH of m2 (nanobody chain of PDB 1ZVH in the cassette) with the stated changes; Member of the 'single, pairwise, and triple Y27W, Y104W and Y110W mutants'; the combination is counted out from that phrase; also called pairwise mutant Y27W, Y110W; source: NEBExpress cell-free E. coli protein synthesis (IVTT); not shown: Cys-tag, N-terminal, kept) VHH: DVQLVESGGGSVQAGGSLRLSCAASGWIASINYLGWFRQAPGKEREGVAAVSPAGGTPYYADSVKGRFTVSLDNAENTVYLQMNSLKPEDTALYYCAAARQGWYIPLNSWGYNYWGQGTQVTVSS | binds |
